This passage reports Kd, koff and kon results from article PMC5378893 (Scientific Reports, 2015).

The labels stand for the following.
B1: M41 IgG (mouse anti-HER2/ECD) (antibody, V domains shown)
VH: EVQLQQSGAELVKPGASVKMSCKAFGYTFTTYPIEWMKQNHGKSLEWIGNFHPYNDYTNYNEKFKGKAKLTVEKSSTTVYLELSRLTSDDSAVYYCARRHDGYYGAMDYWGQGTSVTVSS
VL: DIQMTQTTSSLSASLGDRVTISCRTSQDISNYLNWYQQKPNGTIKLLIYYTSGLYSGVPSRFSGSGSGADYSLTISNVEQEDIATYFCQQVNTLPYTFGGGTKLELK
notes: mouse VL; L49~L53 YYTSG; L91~L96 VNTLPY; mouse VH; H50~H58 NFHPYNDYTN; H96~H100B HDGYYGA; recombinant IgG from a scFv of an immunized mouse's phage library; source: HEK293-F, transient transfection, purified (Protein A, Superdex 200)
B2: M61 IgG (mouse anti-HER2/ECD) (antibody, V domains shown)
VH: EVQLQQSGAELVKPGASVKMSCKAFGYTFTTYPIEWMKQNHGKSLEWIGNFHPYNDDTKYNEKFKGKAKLTVEKSSSTVYLELSRLTSDDSAVYYCARRNDGYYGAMDYWGQGTSVTVSS
VL: DIKITQSPASLSASVGETVTITCRASENIYSYLAWYQQKQGKSPQLLVYNAKTLAEGVPSRFSGSGSGTQFSLKINSLQPEDFGSYYCQHHYGTPYTFGGGTKLELK
notes: mouse VL; L49~L53 YNAKT; L91~L96 HYGTPY; mouse VH; H50~H58 NFHPYNDDTK; H96~H100B NDGYYGA; recombinant IgG from a scFv of an immunized mouse's phage library; source: HEK293-F, transient transfection, purified (Protein A, Superdex 200)
B3: M32 IgG (mouse anti-HER2/ECD) (antibody, V domains shown)
VH: EVQLVESGAELVRPGALVKLSCKASGFNIKDYFMYWVKQRPEQGLEWVGWIDPENGNTIYDPKFQGKASITADTSSNTAYLQLSSLTSEDTAVYYCTRGYYGSRVLAMDYWGQGTSVTVSS
VL: GIELTQSQKFMSTSVGDRVSITCKASQNVGTAVAWYQQKPGQSPKLLIYSASNRYTGVPDRFTGSGSGTDFTLTISNMQSEDLADYFCQQYSSYPLAFGGGTKLEIK
notes: mouse VL; L49~L53 YSASN; L91~L96 YSSYPL; mouse VH; H50~H58 WIDPENGNTI; H96~H100B YYGSRVL; recombinant IgG from a scFv of an immunized mouse's phage library; source: HEK293-F, transient transfection, purified (Protein A, Superdex 200)
B4: M62 IgG (mouse anti-HER2/ECD) (antibody, V domains shown)
VH: EVQLQQSGTELARPGASVKLSCKASGYTFIDYYITWVKQRTGQGLEWIGEIYPGGGNPYYNDNFKGKASLTADKSSNTVYMQLSSLTSEDSAVYFCARSYKYDVSVYWGQGTLVTVSA
VL: DIQMIQSQKFMSTSVGDRVSVTCKASQNVGTNVAWYQQKPGQSPKALIHSASYRYSGVPDRFTGSGSGTDFTLTISNVQSEDLAEYFCQQYNSYPLTFGAGTKLEIK
notes: mouse VL; L49~L53 HSASY; L91~L96 YNSYPL; mouse VH; H50~H58 EIYPGGGNPY; H96~H100B YKYDVS; recombinant IgG from a scFv of an immunized mouse's phage library; source: HEK293-F, transient transfection, purified (Protein A, Superdex 200)
B5: GH2-95 IgG (antibody, V domains shown)
VH: EVQLVESGGGLVQPGGSLRLSCAASGFTIDSWGIHWVRQAPGKGLEWVAGIGPFWGYTSYADSVKGRFTISADTSKNTAYLQMNSLRAEDTAVYYCARFGIHFDGIMDYWGQGTLVTVSS
VL: DIQMTQSPSSLSASVGDRVTITCRASQDVSGGVAWYQQKPGKAPKLLIFGSTWLYSGVPLRFSGSGSGTDFTLTISSLQPEDFATYYCQQYYDWPLTFGQGTKVEIK
notes: source: HEK293-F, transient transfection, purified (Protein A, Superdex 200)
B6: GH2-104 IgG (antibody, V domains shown)
VH: EVQLVESGGGLVQPGGSLRLSCAASGFTIDSWGIHWVRQAPGKGLEWVAGIGPFGGYTSYADSVKGRFTISADTSKNTAYLQMNSLRAEDTAVYYCARFGDYIDGVMDYWGQGTLVTVSS
VL: DIQMTQSPSSLSASVGDRVTITCRASQDVNSNVAWYQQKPGKAPKLLIYGSPSLYSGVPSRFSGSGSGTDFTLTISSLQPEDFATYYCQQYYDWPLTFGQGTKVEIK
notes: as for B5
B7: GH2-98 IgG (antibody, V domains shown)
VH: EVQLVESGGGLVQPGGSLRLSCAASGFTINNYGIHWVRQAPGKGLEWVAGIGPSWGFTYYADSVKGRFTISADTSKNTAYLQMNSLRAEDTAVYYCARFGFYNDGFMDYWGQGTLVTVSS
VL: DIQMTQSPSSLSASVGDRVTITCRASQDVGSGVAWYQQKPGKAPKLLIYFSASLYSGVPSRFSGSGSGTDFTLTISSLQPEDFATYYCQQYYNWPLTFGQGTKVEIK
notes: as for B5
B8: GH2-8 IgG (antibody, V domains shown)
VH: GVQLVESGGGLVQPGGSLRLSCAASGFTIGSSGIHWVRQAPGKGLEWVAGIWPYWGSTYYADSVKGRFTISADTSKNTAYLQMNSLRAEDTAVYYCARFGVGYHYYMDYWGQGTLVTVSS
VL: DIQMTQSPSSLSASVGDRVTITCRASQDVGWWVAWYQQKPGKAPKLLISGATGLYSGVPSRFSGSGSGTDFTLTISSLQPEDFATYYCQQSWDSPITFGQGTKVEIK
notes: as for B5
B9: GH2-13 IgG (antibody, V domains shown)
VH: EVQLVESGGGLVQPGGSLRLSCAASGFTISDGGIHWVRQAPGKGLEWVAGIWPYWGYTSYADSVKGRFTISADTSKNTAYLQMNSLRAEDTAVYYCARFDNNWVGNMDYWGQGTLVTVSS
VL: DIQMTQSPSSLSASVGDRVTITCRASQDVYFGVAWYQQKPGKAPKLLISGTTSLYSGVPSRFSGSGSGTDFTLTISSLQPEDFATYYCQQYGSYPITFGQGTKVEIK
notes: as for B5
B10: GH2-102 IgG (antibody, V domains shown)
VH: EVQLVESGGGLVQPGGSLRLSCAASGFTINGGGIHWVRQAPGKGLEWVASIGPYGGYTSYADSVKGRFTISADTSKNTAYLQMNSLRAGDTAVYYCARFGHHYDGHMDYWGQGTLVTVSS
VL: DIQMTQSPSSLSASVGDRVTITCRASQDVGSNVAWYQQKPGKAPKLLIYGAPYLYSGVPSRFSGSGSGTDFTLTISSLQPEDFATYYCQQYYNWPLTFGQGTKVEIK
notes: as for B5
B11: GH2-14 IgG (antibody, V domains shown)
VH: EVQLVESGGGLVQPGGSLRLSCAASGFTINDHGIHWVRQAPGKGLEWVAGIGPFGGYTSYADSVKGRFTISADTSKNTAYLQMNSLRAEDTAVYYCARFNFNDVGGMDYWGQGTLVTVSS
VL: DIQMTQSPSSLSASVGDRVTITCRASQDVGGGVAWYQQKPGKAPKLLISGPPYLYSGVPSRFSGSGSGTDFTLTISSLQPEDFATYYCQQYFNYPITFGQGTKVEIK
notes: as for B5
B12: GH2-96 IgG (antibody, V domains shown)
VH: EVQLVESGGGLVQPGGSLRLSCAASGFTISGYGIHWVRQAPGKGLEWVAGIGPFWGYTFYADSVKGRFTISADTSKNTAYLQMNSLRAEDTAVYYCARFGHIVDGLMDYWGQGTLVTVSS
VL: DIQMTQSPSSLSASVGDRVTITCRASQDVNGGVAWYQQKPGKAPKLLIYGSSWLYSGVPSRFSGSGSGTDFTLTISSLQPEDFATYYCQQYFDWPITFGQGTKVEIK
notes: as for B5
B13: M64 IgG (mouse anti-HER2/ECD) (antibody, V domains shown)
VH: EVQLQQSGAELVKPGASVKLSCTASGFNIKNTYMHWVKQRPEQGLEWIGRIDPANGNTKYDPKLQGKATITADTSSNTAYLHLSSLTSEDTAVYYCVPYYRGAMDYWGQGTSVTVSS
VL: DIQMNQSHKFMSTSVGDRVSITCKASQDVSTAVAWYQQKPGQSPKLLIYWASTRHTGVPGRFTGSGSGADYTLTISSVQAEDLALYYCQQHYSTPYTFGGGTKLEIK
notes: mouse VL; L49~L53 YWAST; L91~L96 HYSTPY; mouse VH; H50~H58 RIDPANGNTK; H96~H100B YRGAM; recombinant IgG from a scFv of an immunized mouse's phage library; source: HEK293-F, transient transfection, purified (Protein A, Superdex 200)

The assay addresses T1, extracellular domain (ECD) of human epidermal growth factor receptor 2 (HER2) (Homo sapiens, UniProt P04626).
T1 construct: human epidermal growth factor receptor 2 (HER2), extracellular domain; also called HER2/ECD
The assay is described as follows: SPR; BIAcore T200; HER2/ECD immobilised on a CM5 chip by amine coupling to 1000 RU; IgG flowed in PBST (0.05% Tween 20) at 30 uL/min; regeneration 10 mM glycine pH 1.5; global fit to a 1:1 binding model. The note with it: both partners purified. On the technique in general: In SPR one partner is held on a chip, and binding of the other changes the refractive index at the surface.
Broadly, the Kd is the concentration at which binding is half-saturated. By koff is commonly meant the first-order rate constant of dissociation. One may read the kon as a measure of how fast the partners come together. With B1, the Kd was 0.0519 nM, the off-rate (koff) came to 3.48e-05 s⁻¹ and the kon turned out to be 671000 M⁻¹ s⁻¹.

Take B2: the Kd is 0.591 nM, the koff came to 0.0024 s⁻¹ and the kon is 4.06e+06 M⁻¹ s⁻¹.

B3 registered a Kd of 0.243 nM, a koff of 7.15e-05 s⁻¹ and a kon of 294000 M⁻¹ s⁻¹.

For B4, binding was put at a Kd of 0.0228 nM, the dissociation rate constant (koff) came out at 1.8e-05 s⁻¹ and the kon was 788000 M⁻¹ s⁻¹.

Turning to B5, binding was characterised by a dissociation constant (Kd) of 4.47 nM, the dissociation rate constant (koff) was 0.000244 s⁻¹ and the on-rate (kon) is 54700 M⁻¹ s⁻¹.

As to B6, binding was put at a Kd of 1.04 nM, the koff turned out to be 0.000884 s⁻¹ and the on-rate constant (kon) was determined as 852000 M⁻¹ s⁻¹.

On to B7, for which the Kd is 88.5 nM, the koff stood at 0.0224 s⁻¹ and the kon stood at 254000 M⁻¹ s⁻¹.

B8 yielded a Kd of 0.259 nM, a koff of 0.000155 s⁻¹ and a kon of 599000 M⁻¹ s⁻¹.

The molecule B9 had a Kd of 2.64 nM, a koff of 0.00818 s⁻¹ and a kon of 3.1e+06 M⁻¹ s⁻¹.

Turning to B10, binding was characterised by a dissociation constant (Kd) of 28.4 nM, the koff is 0.039 s⁻¹ and the on-rate (kon) turned out to be 1.37e+06 M⁻¹ s⁻¹.

In the case of B11, binding was put at a Kd of 17 nM, the koff was found to be 0.00573 s⁻¹ and the kon is 336000 M⁻¹ s⁻¹.

In the case of B12, the Kd amounted to 5.42 nM, the off-rate (koff) turned out to be 0.00137 s⁻¹ and the kon stood at 254000 M⁻¹ s⁻¹.

As for B13, the Kd amounted to 0.195 nM, the koff stood at 0.000337 s⁻¹ and the kon came out at 1.74e+06 M⁻¹ s⁻¹.
